Laboratory results as given in publication PMC3792905, “HIV-1 Vpr Induces the Degradation of ZIP and sZIP, Adaptors of the NuRD Chromatin Remodeling Complex, by Hijacking DCAF1/VprBP” (PLoS ONE, 2013).

What was measured:
DCAF1 [1] = biological target: DCAF1 (UniProt Q9Y4B6)
DCAF1 [2] = biological target: DCAF1 (UniProt Q9Y4B6 1-1507); experiment: cell-based or functional assay
Chain of DCAF1 (UniProt Q9Y4B6 1-1507) (Q9Y4B6 whole entry): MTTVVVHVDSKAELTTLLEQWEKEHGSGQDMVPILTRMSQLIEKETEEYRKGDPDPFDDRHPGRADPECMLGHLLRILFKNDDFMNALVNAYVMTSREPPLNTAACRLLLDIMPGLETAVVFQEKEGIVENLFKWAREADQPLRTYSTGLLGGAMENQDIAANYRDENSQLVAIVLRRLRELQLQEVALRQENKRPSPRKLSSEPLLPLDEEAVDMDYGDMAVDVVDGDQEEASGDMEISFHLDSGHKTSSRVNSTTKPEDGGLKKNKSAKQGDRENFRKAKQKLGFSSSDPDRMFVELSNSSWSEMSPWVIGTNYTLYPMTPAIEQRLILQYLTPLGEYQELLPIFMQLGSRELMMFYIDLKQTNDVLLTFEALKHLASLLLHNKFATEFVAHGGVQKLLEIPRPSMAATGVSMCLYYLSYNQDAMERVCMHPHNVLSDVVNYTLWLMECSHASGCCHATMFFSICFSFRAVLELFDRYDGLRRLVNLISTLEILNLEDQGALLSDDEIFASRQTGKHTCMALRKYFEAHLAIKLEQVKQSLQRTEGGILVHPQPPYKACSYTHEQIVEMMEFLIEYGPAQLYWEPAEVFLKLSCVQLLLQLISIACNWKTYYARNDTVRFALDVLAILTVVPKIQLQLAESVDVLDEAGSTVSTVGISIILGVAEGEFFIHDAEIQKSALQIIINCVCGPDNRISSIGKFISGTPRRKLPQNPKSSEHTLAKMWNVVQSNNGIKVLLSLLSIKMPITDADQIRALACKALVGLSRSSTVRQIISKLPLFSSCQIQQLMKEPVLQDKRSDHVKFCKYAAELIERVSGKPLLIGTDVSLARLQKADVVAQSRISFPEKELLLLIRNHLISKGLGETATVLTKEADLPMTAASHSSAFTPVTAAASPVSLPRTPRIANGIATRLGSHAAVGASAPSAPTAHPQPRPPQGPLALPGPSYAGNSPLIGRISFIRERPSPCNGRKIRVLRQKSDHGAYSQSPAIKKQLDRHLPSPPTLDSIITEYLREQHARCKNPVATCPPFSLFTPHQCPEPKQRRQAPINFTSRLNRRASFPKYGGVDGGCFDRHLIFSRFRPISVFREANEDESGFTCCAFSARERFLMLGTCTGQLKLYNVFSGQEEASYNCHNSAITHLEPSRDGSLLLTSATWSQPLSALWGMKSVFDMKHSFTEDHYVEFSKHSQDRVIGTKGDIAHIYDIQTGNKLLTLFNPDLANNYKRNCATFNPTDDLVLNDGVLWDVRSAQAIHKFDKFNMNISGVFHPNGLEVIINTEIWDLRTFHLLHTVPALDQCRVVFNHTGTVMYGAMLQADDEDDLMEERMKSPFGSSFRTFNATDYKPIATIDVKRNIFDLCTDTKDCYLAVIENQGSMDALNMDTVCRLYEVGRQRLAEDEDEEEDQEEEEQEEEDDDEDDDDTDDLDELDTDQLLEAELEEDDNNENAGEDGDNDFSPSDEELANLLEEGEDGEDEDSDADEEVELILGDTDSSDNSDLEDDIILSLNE

Chain of DCAF1 (UniProt Q9Y4B6) (Q9Y4B6 whole entry): as above

## VprQ65R (from UniProt P05928 1-96) (natural protein)
DCAF1 [1]
  sZIP expression (FLAG/GFP signal ratio by Western blot) left in HeLa cells co-expressing FLAG-sZIP and the HA-tagged Vpr protein: 50%

B1: HA-tagged Vpr from HIV-1 LAI (natural protein)
chain: MEQAPEDQGPQREPHNEWTLELLEELKNEAVRHFPRIWLHGLGQHIYETYGDTWAGVEAIIRILQQLLFIHFRIGCRHSRIGVTQQRRARNGASRS
DCAF1 [2]
  sZIP expression (FLAG/GFP signal ratio by Western blot) left in HeLa cells co-expressing FLAG-sZIP and the HA-tagged Vpr protein: < 15%
